The source of these data is FireProtDB (doi:10.1016/0022-2836(92)90906-z).

B1: Ribonuclease, P00648 (parent)
chain: MMKMEGIALKKRLSWISVCLLVLVSAAGMLFSTAAKTETSSHKAHTEAQVINTFDGVADYLQTYHKLPDNYITKSEAQALGWVASKGNLADVAPGKSIGGDIFSNREGKLPGKSGRTWREADINYTSGFRNSDRILYSSDWLIYKTTDHYQTFTKIR

Variants of B1 are the subject of this data set. Particulars: Bacillus amyloliquefaciens; pH 6.3; 25 °C; Urea; Fluorescence; MES 1.00 M; NaCl 613 mM; reversible: yes; structure 1BNI; whole UniProt chain shown.

Consider MMKMEGIALKKRLSWISVCLLVLVSAAGMLFSTAAKTETSSHKAHTEAQVINTFDGVADYLQTYKKLPDNYITKSEAQALGWVASKGNLADVAPGKSIGGDIFSNREGKLPGKSGRTWREADINYTSGFRNSDRILYSSDLLIYKTTDHYQTFTKIR [H65K W141L], for which the “ddG of mutation (higher = less stable)” value was 2.7 kcal/mol, the denaturant m value turned out to be 1.8 kcal/mol/M, the “denaturant midpoint (higher = more stable)” value (“denaturant midpoint” for short) is 3.37 M and the unfolding free energy amounted to 6.1 kcal/mol.

For MMKMEGIALKKRLSWISVCLLVLVSAAGMLFSTAAKTETSSHKAHTEAQVINTFDGVADYLQTSHKLPDNYITKSEAQALGWVASKGNLADVAPGKSIGGDIFSNREGKLPGKSGRTWREADINYTSGFRNSDRILYSSDWLIYKTTDHYQTFTKIR [Y64S], the “ddG of mutation (higher = less stable)” value worked out at 2 kcal/mol, the denaturant m value came to 2.08 kcal/mol/M, the “denaturant midpoint” value was 3.25 M and the unfolding free energy was found to be 6.8 kcal/mol.

As for MMKMEGIALKKRLSWISVCLLVLVSAAGMLFSTAAKTETSSHKAHTEAQVINTFDGVADYLQTGHKLPDNYITKSEAQALGWVASKGNLADVAPGKSIGGDIFSNREGKLPGKSGRTWREADINYTSGFRNSDRILYSSDWLIYKTTDHYQTFTKIR [Y64G], the “ddG of mutation (higher = less stable)” value was determined as 4 kcal/mol, the denaturant m value stood at 1.91 kcal/mol/M, the “denaturant midpoint” value worked out at 2.5 M and the unfolding free energy came to 4.8 kcal/mol.

With MMKMEGIALKKRLSWISVCLLVLVSAAGMLFSTAAKTETSSHKAHTEAQVINTFDGVADYLQTYDKLPDNYITKSEAQALGWVASKGNLADVAPGKSIGGDIFSNREGKLPGKSGRTWREADINYTSGFRNSDRILYSSDWLIYKTTDHYQTFTKIR [H65D], the “ddG of mutation (higher = less stable)” value came out at 2.2 kcal/mol, the denaturant m value was found to be 2.04 kcal/mol/M, the “denaturant midpoint” value worked out at 3.26 M and the unfolding free energy was 6.6 kcal/mol.

On to MMKMEGIALKKRLSWISVCLLVLVSAAGMLFSTAAKTETSSHKAHTEAQVINTFDGVADYLQTYGKLPDNYITKSEAQALGWVASKGNLADVAPGKSIGGDIFSNREGKLPGKSGRTWREADINYTSGFRNSDRILYSSDWLIYKTTDHYQTFTKIR [H65G], for which the “ddG of mutation (higher = less stable)” value is 0.7 kcal/mol, the denaturant m value was found to be 1.91 kcal/mol/M, the “denaturant midpoint” value was determined as 4.21 M and the unfolding free energy is 8.1 kcal/mol.

Take MMKMEGIALKKRLSWISVCLLVLVSAAGMLFSTAAKTETSSHKAHTEAQVINTFDGVADYLQTYNKLPDNYITKSEAQALGWVASKGNLADVAPGKSIGGDIFSNREGKLPGKSGRTWREADINYTSGFRNSDRILYSSDWLIYKTTDHYQTFTKIR [H65N]: the “ddG of mutation (higher = less stable)” value was found to be 1.8 kcal/mol, the denaturant m value is 1.89 kcal/mol/M, the “denaturant midpoint” value came to 3.71 M and the unfolding free energy was found to be 7 kcal/mol.

Regarding MMKMEGIALKKRLSWISVCLLVLVSAAGMLFSTAAKTETSSHKAHTEAQVINTFDGVADYLQTYRKLPDNYITKSEAQALGWVASKGNLADVAPGKSIGGDIFSNREGKLPGKSGRTWREADINYTSGFRNSDRILYSSDWLIYKTTDHYQTFTKIR [H65R], the “ddG of mutation (higher = less stable)” value was determined as 1 kcal/mol, the denaturant m value came out at 1.97 kcal/mol/M, the “denaturant midpoint” value came to 3.97 M and the unfolding free energy was 7.8 kcal/mol.

For the variant MMKMEGIALKKRLSWISVCLLVLVSAAGMLFSTAAKTETSSHKAHTEAQVINTFDGVADYLQTYKKLPDNYITKSEAQALGWVASKGNLADVAPGKSIGGDIFSNREGKLPGKSGRTWREADINYTSGFRNSDRILYSSDWLIYKTTDHYQTFTKIR [H65K], the “ddG of mutation (higher = less stable)” value turned out to be 0.9 kcal/mol, the denaturant m value worked out at 1.99 kcal/mol/M, the “denaturant midpoint” value was 3.96 M and the unfolding free energy was 7.9 kcal/mol.

Regarding MMKMEGIALKKRLSWISVCLLVLVSAAGMLFSTAAKTETSSHKAHTEAQVINTFDGVADYLQTYAKLPDNYITKSEAQALGWVASKGNLADVAPGKSIGGDIFSNREGKLPGKSGRTWREADINYTSGFRNSDRILYSSDWLIYKTTDHYQTFTKIR [H65A], the “ddG of mutation (higher = less stable)” value was 1.9 kcal/mol, the denaturant m value came out at 1.91 kcal/mol/M, the “denaturant midpoint” value amounted to 3.62 M and the unfolding free energy stood at 6.9 kcal/mol.

Turning to MMKMEGIALKKRLSWISVCLLVLVSAAGMLFSTAAKTETSSHKAHTEAQVINTFDGVADYLQTYAKLPDNYITKSEAQALGWVASKGNLADVAPGKSIGGDIFSNREGKLPGKSGRTWREADINYTSGFRNSDRILYSSDLLIYKTTDHYQTFTKIR [H65A W141L], the “ddG of mutation (higher = less stable)” value was determined as 2.3 kcal/mol, the denaturant m value worked out at 1.94 kcal/mol/M, the “denaturant midpoint” value was determined as 3.36 M and the unfolding free energy worked out at 6.5 kcal/mol.

Regarding MMKMEGIALKKRLSWISVCLLVLVSAAGMLFSTAAKTETSSHKAHTEAQVINTFDGVADYLQAYHKLPDNYITKSEAQALGWVASKGNLADVAPGKSIGGDIFSNREGKLPGKSGRTWREADINYTSGFRNSDRILYSSDWLIYKTTDHYQTFTKIR [T63A], the “ddG of mutation (higher = less stable)” value is 0.5 kcal/mol, the denaturant m value was 1.88 kcal/mol/M, the “denaturant midpoint” value is 4.43 M and the unfolding free energy is 8.3 kcal/mol.

MMKMEGIALKKRLSWISVCLLVLVSAAGMLFSTAAKTETSSHKAHTEAQVINTFDGVAGYLQTYHKLPDNYITKSEAQALGWVASKGNLADVAPGKSIGGDIFSNREGKLPGKSGRTWREADINYTSGFRNSDRILYSSDWLIYKTTDHYQTFTKIR [D59G]: the “ddG of mutation (higher = less stable)” value stood at 0.2 kcal/mol, the denaturant m value turned out to be 1.87 kcal/mol/M, the “denaturant midpoint” value came to 3.97 M and the unfolding free energy was 8.6 kcal/mol.

For the variant MMKMEGIALKKRLSWISVCLLVLVSAAGMLFSTAAKTETSSHKAHTEAQVINTFDGVASYLQTYHKLPDNYITKSEAQALGWVASKGNLADVAPGKSIGGDIFSNREGKLPGKSGRTWREADINYTSGFRNSDRILYSSDWLIYKTTDHYQTFTKIR [D59S], the “ddG of mutation (higher = less stable)” value stood at 0.9 kcal/mol, the denaturant m value was 1.85 kcal/mol/M, the “denaturant midpoint” value was found to be 4.29 M and the unfolding free energy is 7.9 kcal/mol.

On to MMKMEGIALKKRLSWISVCLLVLVSAAGMLFSTAAKTETSSHKAHTEAQVINTFSGVADYLQTYHKLPDNYITKSEAQALGWVASKGNLADVAPGKSIGGDIFSNREGKLPGKSGRTWREADINYTSGFRNSDRILYSSDWLIYKTTDHYQTFTKIR [D55S], for which the “ddG of mutation (higher = less stable)” value came to 0.7 kcal/mol, the denaturant m value is 1.99 kcal/mol/M, the “denaturant midpoint” value stood at 4.07 M and the unfolding free energy stood at 8.1 kcal/mol.

For MMKMEGIALKKRLSWISVCLLVLVSAAGMLFSTAAKTETSSHKAHTEAQVINTFGGVADYLQTYHKLPDNYITKSEAQALGWVASKGNLADVAPGKSIGGDIFSNREGKLPGKSGRTWREADINYTSGFRNSDRILYSSDWLIYKTTDHYQTFTKIR [D55G], the “ddG of mutation (higher = less stable)” value was 1.3 kcal/mol, the denaturant m value came to 1.89 kcal/mol/M, the “denaturant midpoint” value was 3.97 M and the unfolding free energy stood at 7.5 kcal/mol.

With MMKMEGIALKKRLSWISVCLLVLVSAAGMLFSTAAKTETSSHKAHTEAQVINPFDGVADYLQTYHKLPDNYITKSEAQALGWVASKGNLADVAPGKSIGGDIFSNREGKLPGKSGRTWREADINYTSGFRNSDRILYSSDWLIYKTTDHYQTFTKIR [T53P], the “ddG of mutation (higher = less stable)” value stood at 3.3 kcal/mol, the denaturant m value was 1.83 kcal/mol/M, the “denaturant midpoint” value is 2.99 M and the unfolding free energy came to 5.5 kcal/mol.
